Source: PMC7251214

Target: MtrD multidrug efflux pump from N. gonorrhoeae strain CR.103 (MtrD_(CR103)) (Neisseria gonorrhoeae) (UniProt Q51073)
Assay: cryo-EM structure; single-particle cryo-EM of purified MtrD_(CR103) in lipid nanodiscs (MSP 1E3D1), 2 uM, 20 mM Tris-HCl pH 7.5, 100 mM NaCl; one structure with fortuitously bound hydrolyzed ampicillin, one after incubation with 10 uM erythromycin for 2 h; C1 symmetry

For “MtrD multidrug efflux pump from N. gonorrhoeae strain CR.103 (MtrD_(CR103)) (from UniProt Q51073 1-1067) (natural protein)”, which stoichiometry N is on record?
Its stoichiometry N is 3.
